In IntAct's records for PubMed 24389026:

B1: Ubiquitin-conjugating enzyme E2 T (Homo sapiens), Q9NPD8 (parent)
chain: MQRASRLKRELHMLATEPPPGITCWQDKDQMDDLRAQILGGANTPYEKGVFKLEVIIPERYPFEPPQIRFLTPIYHPNIDSAGRICLDVLKLPPKGAWRPSLNIATVLTSIQLLMSEPNPDDPLMADISSEFKYNKPAFLKNARQWTEKHARQKQKADEEEMLDNLPEAGDSRVHNSTQKRKASQLVGIEKKFHPDV
partner: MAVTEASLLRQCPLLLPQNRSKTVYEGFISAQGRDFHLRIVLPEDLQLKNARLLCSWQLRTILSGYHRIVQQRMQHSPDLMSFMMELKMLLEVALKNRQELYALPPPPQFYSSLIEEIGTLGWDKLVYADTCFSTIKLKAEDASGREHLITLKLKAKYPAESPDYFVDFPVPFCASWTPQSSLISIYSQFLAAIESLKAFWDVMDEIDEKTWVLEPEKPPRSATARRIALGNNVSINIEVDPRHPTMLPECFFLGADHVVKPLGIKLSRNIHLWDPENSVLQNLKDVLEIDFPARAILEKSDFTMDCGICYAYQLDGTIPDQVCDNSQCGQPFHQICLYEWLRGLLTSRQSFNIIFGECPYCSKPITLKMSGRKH
B2: E3 ubiquitin-protein ligase FANCL (Homo sapiens), Q9NW38-1 (parent)
chain: B1 partner

Variants of: B1
Settings: with FANCL

effect of a mutation on the interaction | Variant
disrupting interaction strength | R60E

Variants of: B2
Settings: with ube2t_human UBE2T

effect of a mutation on the interaction | Variant
disrupting interaction strength | I309A
disrupting interaction strength | W341A
disrupting interaction strength | Y311A
